Test results: patent publication US20210179686A1 (Memorial Sloan Kettering, published 2021)
Residue numbers refer to the chain shown, from its start.

Key:
[1] = target: T1, 1N mutant: E1R2EE345L linker EE12RR345L membrane-bound construct; test: FLAG staining of co-transduced C1498 cells, flow cytometry (FIG. 20)
T1 chain: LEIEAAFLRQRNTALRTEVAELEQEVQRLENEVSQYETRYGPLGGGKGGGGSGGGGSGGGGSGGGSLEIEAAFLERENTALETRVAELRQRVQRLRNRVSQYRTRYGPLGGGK
Description: (§1) C1498 cells were co-transduced with the FLAG-RR12EE345L GFP vector and one of the six mutants as part of RR12EE345L linker EE12RR345L BFP vector constructs. […] Thus, mutating the […] leucine zipper at “g” position residues to include repulsive amino acid interactions can reduce the degree of blocking by the linked […]-based mutant leucine zipper.

[2] = target: T2, 1M mutant: RR123E45L linker EE12RR345L membrane-bound construct; test: as above
T2 chain: T1 chain with E4R, E18R
Description: as §1

[3] = target: T3, 2N mutant: EE12345L linker EE12RR345L membrane-bound construct; test: as above
T3 chain: T1 chain with R11E
Description: as §1

[4] = target: T4, 2M mutant: RR1234E5L linker EE12RR345L membrane-bound construct; test: as above
T4 chain: T1 chain with E4R, E18R, E25R
Description: as §1

[5] = target: T5, 3N mutant: EE12R3E45L linker EE12RR345L membrane-bound construct; test: as above
T5 chain: T1 chain with R11E, E18R
Description: as §1

[6] = target: T6, 3C mutant: RR12345L linker EE12RR345L membrane-bound construct; test: as above
T6 chain: T1 chain with E4R, E18R, E25R, E32R
Description: as §1

[7] = target: T7, RR12EE345L linker EE12RR345L CD80 (mouse (CD80 part, SEQ ID NO: 111)); test: co-transduced T cells sorted with anti-FLAG magnetic beads (FIG. 21A)
T7 construct: left out; Expressed on T cells from a vector that also carries the CD20-streptag-CAR; also called CD80 functionalized leucine zipper
T7 chain: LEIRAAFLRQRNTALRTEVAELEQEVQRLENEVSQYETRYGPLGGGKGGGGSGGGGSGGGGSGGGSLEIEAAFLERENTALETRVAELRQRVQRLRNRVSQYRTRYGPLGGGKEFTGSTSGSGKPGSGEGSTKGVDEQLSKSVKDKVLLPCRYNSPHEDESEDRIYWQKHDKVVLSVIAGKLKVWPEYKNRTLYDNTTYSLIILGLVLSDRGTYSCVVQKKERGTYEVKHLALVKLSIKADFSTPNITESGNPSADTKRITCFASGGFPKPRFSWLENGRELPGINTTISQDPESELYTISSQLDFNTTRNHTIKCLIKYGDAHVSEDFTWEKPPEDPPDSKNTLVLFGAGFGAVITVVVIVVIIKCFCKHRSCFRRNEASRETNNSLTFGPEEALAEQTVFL
Description: T cells were transduced with vectors encoding (a) FLAG-RR12EE345L iCaspase9 CD19-myc-CAR and (b) RR12EE345L linker EE12RR345L CD80 CD20-streptag-CAR. Next, cells were magnetically sorted with anti-FLAG magnetic beads.

[8] = target: T8, R2-EE12RR345L CD28-9c delta; test: double-transduced C1498 cells sorted with CD34 beads by the captured Q2 zipper (FIG. 19)
T8 construct: also called tandem circular CD20 mimotope-tagged capture leucine zipper
T8 chain: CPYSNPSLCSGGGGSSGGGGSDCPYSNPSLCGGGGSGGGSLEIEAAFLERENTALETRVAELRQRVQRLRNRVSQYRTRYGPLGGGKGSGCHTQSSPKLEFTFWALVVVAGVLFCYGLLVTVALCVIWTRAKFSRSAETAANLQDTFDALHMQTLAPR
Protocol: Next, the cells were magnetically sorted with CD34 beads. Subsequently, the cells were incubated with antibodies in the presence of complement.

Measured: binding result

B1: FLAG-RR12EE345L leucine zipper (secreted, affinity-tagged) (designed binder)
chain: DYKDDDDKLEIRAAFLRQRNTALRTEVAELEQEVQRLENEVSQYETRYGPLGGGK
notes: also called RR12EE345L-FLAG
not listed: [8]
binds: all other assays above

B2: Q2-RR12EE345L (designed binder)
chain: GSGELPTQGTFSNVSTNVSGGGGSGGGSELPTQGTFSNVSTNVSGGGGSGGGSALGLEIRAAFLRQRNTALRTEVAELEQEVQRLENEVSQYETRYGPLGGGK
binds: [8]
